# Experimental data as given in patent US7919104B2, “Functional epitopes of Streptococcus pneumoniae PsaA antigen and uses thereof” (priority 2005, dated 2011).
# “And” between values parts separate entries of the source, which are not always exact repeats. Identical values can stand only once. No end group written: not given here.
# Experiments:
# Pneumococci (Pnc) = experiment: Rabbit immunization with MAP of P4: serum inhibition of adherence of Pneumococci to Detroit 562 cells (anti Pneumococcal activity); assay type: in vivo, Streptococcus pneumoniae
# From the text: The MAPs consist of two arms, each consisting of SEQ ID NO:1 linked via lys or nle-lys to a resin.
# Assessment of Serum Samples: • 1) Inhibition of adherence of P4 coated fluorescent beads to Detroit 562 cells (in vitro; tissue culture) to detect the presence of anti P4 antibodies in serum. • 2) Inhibition of adherence of PsaA coated fluorescent beads to Detroit 562 cells (in vitro; tissue culture) to detect the presence of anti PsaA antibodies in the serum. • 3) Inhibition of adherence of Pneumococci (Pnc) to Detroit 562 cells (in vitro; tissue culture) to detect the presence of anti Pnc antibodies in serum. Immunization with P4E—Analyses of Rabbit Sera for Anti P4 and Anti Pneumococcal (Pnc) Antibody: Animal 465
# [1] = biological target: T1, P4 coated fluorescent beads (Streptococcus pneumoniae serotype 4, UniProt P0A4G2, D258K/D259R); experiment: Rabbit immunization with MAP of P4: serum inhibition of adherence of P4 coated fluorescent beads to Detroit 562 cells (anti P4 activity); assay type: in vivo
# T1 sequence (P0A4G2 251-278 D258K/D259R): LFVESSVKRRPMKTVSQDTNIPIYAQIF
# [2] = rabbit serum 1:1000, Bleed # 1 (Day 28)
# [3] = rabbit serum 1:1000, Bleed # 2 (Day 42)
# [4] = rabbit serum 1:8000, Bleed # 1 (Day 28)
# [5] = rabbit serum 1:8000, Bleed # 2 (Day 42)
# [6] = rabbit serum 1:16000, Bleed # 2 (Day 42)
# [7] = rabbit serum 1:32000, Bleed # 1 (Day 28)
# [8] = rabbit serum 1:10, Bleed # 1 (Day 28)
# [9] = rabbit serum 1:10, Bleed # 2 (Day 42)
# [10] = rabbit serum 1:100, Bleed # 1 (Day 28)
# [11] = rabbit serum 1:16000, Bleed # 1 (Day 28)
# [12] = rabbit serum 1:32000, Bleed # 2 (Day 42)
# [13] = rabbit serum 1:64000, Bleed # 1 (Day 28)
# [14] = rabbit serum 1:64000, Bleed # 2 (Day 42)
# [15] = rabbit serum 1:128000, Bleed # 1 (Day 28)
# [16] = rabbit serum 1:128000, Bleed # 2 (Day 42)
# [17] = rabbit serum 1:256000, Bleed # 1 (Day 28)
# [18] = rabbit serum 1:256000, Bleed # 2 (Day 42)
# [19] = rabbit serum 1:512000, Bleed # 1 (Day 28)
# [20] = rabbit serum 1:512000, Bleed # 2 (Day 42)
Substance,"Anti Pneumococcal activity, % inhibition of adherence (% IA) (Pneumococci (Pnc); [2])","Anti Pneumococcal activity, % inhibition of adherence (% IA) (Pneumococci (Pnc); [4])","Anti Pneumococcal activity, % inhibition of adherence (% IA) (Pneumococci (Pnc); [5])","Anti P4 activity, % inhibition of adherence (% IA) [1, 8]","Anti P4 activity, % inhibition of adherence (% IA) [1, 9]","Anti P4 activity, % inhibition of adherence (% IA) [1, 10]","Anti P4 activity, % inhibition of adherence (% IA) [1, 2]","Anti P4 activity, % inhibition of adherence (% IA) [1, 3]","Anti P4 activity, % inhibition of adherence (% IA) [1, 4]","Anti P4 activity, % inhibition of adherence (% IA) [1, 5]","Anti P4 activity, % inhibition of adherence (% IA) [1, 11]","Anti P4 activity, % inhibition of adherence (% IA) [1, 6]","Anti P4 activity, % inhibition of adherence (% IA) [1, 12]","Anti P4 activity, % inhibition of adherence (% IA) [1, 13]","Anti P4 activity, % inhibition of adherence (% IA) [1, 14]","Anti P4 activity, % inhibition of adherence (% IA) [1, 15]","Anti P4 activity, % inhibition of adherence (% IA) [1, 16]","Anti P4 activity, % inhibition of adherence (% IA) [1, 17]","Anti P4 activity, % inhibition of adherence (% IA) [1, 18]","Anti P4 activity, % inhibition of adherence (% IA) [1, 19]",other results
"P4E2: Multi Antigenic Peptide (MAP) of P4: two arms, each SEQ ID NO:1, linked via lys or nle-lys to a resin (chain 1 LFVESSVKRRPMKTVSQDTNIPIYAQIF; chain 2 LFVESSVKRRPMKTVSQDTNIPIYAQIF; not fully specified; also: MAP: two identical arms on a Lys or Nle-Lys core)",22% and 23%,19% and 21%,22% and 16%,50% and 56%,74% and 75%,0%,0%,4% and 1%,0%,1% and 2%,0%,0%,0%,0%,2% and 4%,0%,4% and 0%,0%,4% and 5%,0%,"Anti Pneumococcal activity, % inhibition of adherence (% IA) (Pneumococci (Pnc); [3]): 33% and 20%; Anti Pneumococcal activity, % inhibition of adherence (% IA) (Pneumococci (Pnc); [6]): 18% and 12%; Anti Pneumococcal activity, % inhibition of adherence (% IA) (Pneumococci (Pnc); [7]): 0%; Anti P4 activity, % inhibition of adherence (% IA) ([1]; rabbit serum 1:100, Bleed # 2 (Day 42)): 0% and 3%; Anti P4 activity, % inhibition of adherence (% IA) [1, 7]: 0%; Anti P4 activity, % inhibition of adherence (% IA) [1, 20]: 0%"
"P4E: Multi Antigenic Peptide (MAP) of P4: two arms, each SEQ ID NO:1, linked via lys or nle-lys to a resin (chain 1 LFVESSVKRRPMKTVSQDTNIPIYAQIF; chain 2 LFVESSVKRRPMKTVSQDTNIPIYAQIF; also: MAP: two P4 arms on a Lys or Nle-Lys core)",24% and 38%,23% and 34%,13% and 21%,39% and 46%,43% and 48%,32% and 29%,33% and 41%,9% and 12%,6% and 9%,5% and 4%,12% and 15%,7% and 1%,9% and 5%,22% and 21%,6% and 3%,10% and 15%,5% and 9%,5% and 7%,0% and 3%,5% and 7%,"Anti Pneumococcal activity, % inhibition of adherence (% IA) (Pneumococci (Pnc); [11]): 25% and 27%; Anti Pneumococcal activity, % inhibition of adherence (% IA) (Pneumococci (Pnc); [12]): 14% and 16%; Anti P4 activity, % inhibition of adherence (% IA) [1, 20]: 6% and 3%"
